Source: the supplement of paper PMC10567573

B1: USP39 (parent)
chain: FQGSMRIFTKKLPHPDLPAEEKEQ
B2: FBXO3 (parent)
chain: HDPLWRRHCKKYWLISEEEKTQKN

Variants of: B1
Assay: protein stability index of a GFP-peptide fusion (GPS, HEK-293T) (PSI 1-6); higher = more stable
Details: c terminus: a fixed tail appended
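Also: lentivirally expressed fusions sorted by FACS into six bins by GFP to DsRed ratio, PSI derived from sequencing read proportions per bin multiplied by bin number.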

Protein stability index, by site and new letter:
T9: I 1.66 | K 2.08 | L 1.92 | M 2.03 | N 2.65 | P 3.14 | Q 2.19 | R 2.23 | S 1.75 | V 1.5 | W 2.23 | Y 1.94
K10: A 2.08 | C 3.86 | D 2.07 | F 2.03 | G 2.2 | H 2.37 | I 1.74 | L 2.53 | M 1.37 | N 2.81 | P 3.29 | Q 1.84 | R 1.61 | S 2.44 | T 1.19 | V 2.22 | W 1.81 | Y 1.94
K11: A 1.68 | C 3.14 | D 2.08 | E 2.85 | F 1.7 | G 1.94 | H 1.57 | I 1.87 | L 1.65 | M 1.61 | N 2.35 | P 1.84 | Q 1.85 | R 2.06 | S 1.9 | T 1.96 | V 2 | W 1.85 | Y 1.71
L12: A 1.62 | C 2.15 | D 2.63 | E 1.71 | F 1.47 | G 1.72 | H 2.17 | I 1.91 | K 1.86 | M 2.37 | N 2.05 | P 2.45 | Q 2.23 | R 1.32 | S 2.41 | T 1.93 | V 1.74 | W 1.45 | Y 2
P13: A 2.94 | C 2.05 | D 1.72 | E 1.98 | F 1.99 | G 2.1 | H 2.4 | I 1.86 | K 2.15 | L 1.65 | M 2.12 | N 2.35 | Q 1.9 | R 2.17 | S 1.61 | T 1.68 | V 1.75 | W 3.08 | Y 1.62
H14: A 1.9 | C 2.27 | D 2.18 | E 2.05 | F 1.92 | G 1.77 | I 1.84 | K 1.77 | L 2.36 | M 2.36 | N 1.94 | P 1.86 | Q 1.78 | R 1.93 | S 1.65 | T 2.36 | V 1.88 | W 1.99 | Y 1.8
P15: A 1.92 | C 1.64 | D 1.73 | E 2.19 | F 2.14 | G 1.92 | H 2.15 | I 1.75 | K 1.76 | L 1.85 | M 2.1 | N 2.41 | Q 1.74 | R 2.03 | S 1.94 | T 1.93 | V 1.62 | W 1.48 | Y 1.34
D16: A 1.7 | C 1.54 | E 2.18 | F 2.16 | G 1.97 | H 2.12 | I 2.13 | K 1.94 | L 2.3 | M 1.76 | N 2.37 | P 1.73 | Q 2.19 | R 2.17 | S 1.85 | T 2.64 | V 1.99 | W 2.67 | Y 2.18
L17: A 1.99 | C 2.33 | D 2.32 | E 2.24 | F 2.36 | G 2.19 | H 1.92 | I 1.89 | K 1.66 | M 1.95 | N 2.26 | P 1.96 | Q 2.34 | R 1.9 | S 1.95 | T 2.1 | V 1.88 | W 2.06 | Y 2.5
P18: A 2.07 | C 1.83 | D 1.93 | E 1.8 | F 2.11 | G 1.98 | H 1.82 | I 1.7 | K 2.01 | L 1.75 | M 2.06 | N 1.98 | Q 2.15 | R 1.88 | S 2.21 | T 1.88 | V 1.71 | W 2.1 | Y 1.74
A19: C 1.96 | D 2.07 | E 2.37 | F 1.81 | G 1.63 | H 2.25 | I 1.53 | K 1.73 | L 2.25 | M 1.63 | N 1.79 | P 2.5 | Q 2.31 | R 1.64 | S 2.08 | T 1.68 | V 2.25 | W 1.58 | Y 1.34
E20: A 1.9 | C 2.12 | D 1.87 | F 1.85 | G 1.59 | H 1.59 | I 2.03 | K 2.51 | L 2.07 | M 1.67 | N 1.51 | Q 1.36 | R 1.95 | S 2.16 | T 2.17 | V 1.5 | W 2.38 | Y 1.87
E21: A 1.81 | C 1.54 | D 1.73 | F 2.29 | G 1.88 | H 2.25 | I 2.45 | K 1.91 | L 2.04 | M 2.23 | N 2.36 | P 2.02 | Q 2.08 | R 1.96 | S 2.12 | T 2.01 | V 1.4 | W 1.32 | Y 1.62
K22: A 2.23 | C 1.69 | D 2.08 | E 2.11 | F 1.96 | G 2.13 | H 1.22 | I 1.94 | L 1.78 | M 2.32 | N 2.09 | P 2.09 | Q 1.62 | R 2.54 | S 1.88 | T 1.93 | V 2.48 | W 1.93 | Y 1.54
E23: A 1.65 | C 1.79 | D 2.16 | F 1.38 | G 2.21 | H 2.18 | I 1.57 | K 1.84 | L 1.69 | M 1.85 | N 2.1 | P 1.84 | Q 1.64 | R 1.71 | S 1.98 | T 1.61 | V 1.47 | W 2.19 | Y 1.66
Q24: A 2.05 | C 2.15 | D 2.32 | E 1.81 | F 1.87 | G 2.42 | H 2.05 | I 2.13 | K 2.37 | L 1.91 | M 2.05 | N 2.12 | P 1.83 | R 2.15 | S 2.14 | T 2.1 | V 1.52 | W 1.33 | Y 1.62

Variants of: B2
Assay: as above
Details: c terminus: a fixed tail appended

Protein stability index of substitutions, site by site:
H1: A 3.78 | C 3.53 | D 4.12 | E 3.84 | F 2.34 | G 3.29 | I 2.06 | K 3.21 | L 3.85 | M 3.32 | N 3.38 | P 3.74 | Q 3.13 | R 2.8 | S 3.62 | T 3.66 | V 3.38 | W 2.15 | Y 2.12
D2: A 2.58 | C 2.26 | E 2.62 | F 2.33 | G 1.62 | H 2.18 | I 2.25 | K 2.58 | L 2.24 | M 2.63 | N 2.78 | P 3.13 | Q 2.91 | R 2.86 | S 1.81 | T 1.87 | V 1.97 | W 1.97 | Y 2.56
P3: A 3.58
